Measured values from paper PMC4072346.

B1: PHLPP1 (Homo sapiens) (protein)
chain: PRLVLDHKTLELLNNIRCFKIDQPSTGDASGAPAVWSHGYTEASGVKNKLCVAALSVNNFCDNREALYGVFDGDRNVEVPYLLQCTMSDILAEELQKTKNEEEYMVNTFIVMQRKLGTAGQKLGGAAVLCHIKHDPVDPGGSFTLTSANVGKCQTVLCRNGKPLPLSRSYIMSCEEELKRIKQHKAIITEDGKVNGVTESTRILGYTFLHPSVVPRPHVQSVLLTPQDEFFILGSKGLWDSLSVEEAVEAVRNVPDALAAAKKLCTLAQSYGCHDSISAVVVQLSVTEDSFCCCELSAGGAVPPPSPGIFPPSVNMVIKDRPSDGLGVPSSSSGMASEISSELSTSEMSSEVGSTASDEPPPGA
B2: PHLPP2 (Homo sapiens) (protein)
chain: SHGLAEMAGQRNKLCVSALAMDSFAEGVGAVYGMFDGDRNEELPRLLQCTMADVLLEEVQQSTNDTVFMANTFLVSHRKLGMAGQKLGSSALLCYIRPDTADPASSFSLTVANVGTCQAVLCRGGKPVPLSKVFSLEQDPEEAQRVKDQKAIITEDNKVNGVTCCTRMLGCTYLYPWILPKPHISSTPLTIQDELLILGNKALWEHLSYTEAVNAVRHVQDPLAAAKKLCTLAQSYGCQDNVGAMVVYL

Substrate: O=[N+]([O-])c1ccc(OP(=O)(O)O)cc1
Assay: purified protein
Format: biochemical, Homo sapiens
Conditions: pH 7.5

Row | Protein | Km | kcat [s⁻¹] | kcat/Km [M⁻¹ s⁻¹]
1 | B1 | (2.1 ± 0.2) × 10^–3 M | 0.0018 ± 0.0003 | 0.9 ± 0.2
2 | B2 | (1.3 ± 0.2) × 10^–3 M | 0.37 ± 0.08 | 285 ± 9
